From US6410319

Biological target: T1, CD20 (human) (UniProt P11836)
T1 sequence (looked up): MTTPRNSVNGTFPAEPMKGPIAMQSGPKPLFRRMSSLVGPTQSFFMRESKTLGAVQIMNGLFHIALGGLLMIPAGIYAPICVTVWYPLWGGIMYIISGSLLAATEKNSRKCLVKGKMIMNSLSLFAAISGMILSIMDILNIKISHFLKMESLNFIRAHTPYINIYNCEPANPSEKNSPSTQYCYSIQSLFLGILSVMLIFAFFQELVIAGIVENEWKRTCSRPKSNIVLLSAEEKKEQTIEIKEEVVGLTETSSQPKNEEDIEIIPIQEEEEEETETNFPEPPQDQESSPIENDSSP
Assay: cell-based or functional assay

decrease of IL-2 concentration in supernatants of Jurkat transfectants co-cultured with LCL: 60%
B1: anti-CD20 Leu-16 monoclonal antibody (antibody, from another filing, V domains shown)
VH: EVQLQQSGAELVKPGASVKMSCKASGYTFTSYNMHWVKQTPGQGLEWIGAIYPGNGDTSYNQKFKGKATLTADKSSSTAYMQLSSLTSEDSADYYCARSNYYGSSYWFFDVWGAGTTVTVSS
VL: DIVLTQSPAILSASPGEKVTMTCRASSSVNYMDWYQKKPGSSPKPWIYATSNLASGVPARFSGSGSGTSYSLTISRVEAEDAATYYCQQWSFNPPTFGGGTKLEIK
